Test results published in patent US20120009179A1 (Kyowa Kirin, published 2012).
Changes are numbered by the printed parent chain. Values belong to the binder of their own block, whether it stands above or below them.

Legend:
[1] = molecular target: T1, Aβ monomers prepared from Biotin-beta-Amyloid, Human 1-40 (human, UniProt P05067 672-711, Biotin (position not stated; printed as "Biotin-beta-Amyloid, Human 1-40")); assay: SPR (Biacore T100), biotin-Aβ1-40 monomers captured on SA chip, antibody injected
T1 construct: domain: beta-Amyloid, Human 1-40; Captured on an SA sensor chip through biotin; also called amyloid β protein monomer
Protocol: In order to analyze the binding activity of the respective anti-Aβ oligomer humanized antibodies (HV0LV0, HV0LV2a, HV0LV4 and HV12LV4) against Aβ monomers, the binding activity was measured in the same manner as in (1) of this Example. In addition, the binding activity of anti-Aβ antibody 6E10 (manufactured by CONVANCE) was measured as a control antibody.
The Aβ monomers obtained in (2) of Example (2) were immobilized to the SA sensor chip (manufactured by GE Healthcare Bio-sciences) by the biotin capturing method. Onto the chip to which the Aβ monomers were immobilized, samples for measurement, which were prepared to have 5 levels of density by diluting from 30 μg/mL by doubling dilution in a stepwise manner (6E10, HV0LV0, HV0LV2a, HV0LV4 and HV12LV4), were sequentially injected and measured in the order from the lower density based on the automatic program of the multi-kinetics mode.

[2] = molecular target: T2, Aβ oligomers prepared from Amyloid β-protein, Human 1-42 peptide (human, UniProt P05067 672-713); assay: SPR (Biacore T100), Aβ oligomers amine-coupled on CM5 chip, antibody injected, Bivalent Analyte model (kd1/ka1)
T2 construct: domain: Amyloid β-protein, Human 1-42 peptide; Non-covalent oligomer of synthetic Aβ1-42; Immobilized on a CM5 chip by amine coupling; also called amyloid β protein oligomer
Protocol: (§1) All the following operations were performed using Biocore T100 (manufactured by GE Healthcare Bio-sciences). The Aβ oligomers obtained in (1) of Example 2 were immobilized to the CM5 sensor chip (GE Healthcare Bio-sciences) using the amine coupling method.
(§2) Onto the chip to which the Aβ oligomers were immobilized for measurement samples prepared to have 8 levels of density by diluting from 30 μg/mL by doubling dilution in a stepwise manner (HV0LV0, HV0LV2a, HV0LV4 and HV12LV4) was sequentially injected and measured in the order from the lower density based on the automatic program of the multi-kinetics.
(§3) Using the analysis software attached to the device, Biacore T100 Evaluation software (manufactured by Biacore Life Science), analysis was carried out with the Bivalent Analyte model to calculate the binding rate constant ka and the dissociation rate constant kd of each of the antibody against Aβ oligomers.

[3] = molecular target: T2, Aβ oligomers prepared from Amyloid …; assay: SPR (Biacore T100), Aβ oligomers amine-coupled on CM5 chip, antibody injected, Bivalent Analyte model (ka1)
Protocol: as §1, §2, §3

[4] = molecular target: T2, Aβ oligomers prepared from Amyloid …; assay: SPR (Biacore T100), Aβ oligomers amine-coupled on CM5 chip, antibody injected, Bivalent Analyte model (kd1)
Protocol: as §1, §2, §3

T1 sequence (P05067 672-711 limits assumed): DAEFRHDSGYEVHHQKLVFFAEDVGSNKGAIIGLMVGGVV
T2 sequence (P05067 672-713 limits assumed): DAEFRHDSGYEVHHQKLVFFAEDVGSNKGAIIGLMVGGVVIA

- Kd [2]: 61 nM
- kon [3]: 6400 M⁻¹ s⁻¹
- koff [4]: 0.00039 s⁻¹
B1: anti-Aβ oligomer humanized antibody HV0LV2a (antibody, V domains shown)
VH: QVQLVQSGAEVKKPGASVKVSCKASGYTFTSYWMHWVRQAPGQGLEWMGEINPRNGGTNNNENFKRRVTITADTSTSTAYMELSSLRSEDTAVYYCARDGNYDPFAYWGQGTLVTVSS
VL: DIVMTQSPLSLPVTPGEPASISCRSSQSLVHSNGNTYLHWYLQKPGQSPKLLIYKVSNRFSGVPDRFSGSGSGTDFTLKISRVEAEDVGVYFCSQSTHVPPYTFGQGTKLEIK
notes: also called 6E4HV0 + LV2a
- binding result [1]: no binding (tested: 30 µg/mL highest of 5 two-fold dilutions)

- Kd [2]: 300 nM
- kon [3]: 2700 M⁻¹ s⁻¹
- koff [4]: 0.00081 s⁻¹
B2: anti-Aβ oligomer humanized antibody HV12LV4 (antibody, V domains shown)
VH: QVQLVQSGAEVVKPGASVKLSCKASGYTFTSYWMHWVKLAPGQGFEWIGEINPRNGGTNNNENFKRKATLTVDKSTSTAYMELSSLRSEDTAVYYCTRDGNYDPFAYWGQGTLVTVSS
VL: B1 VL with I2V, P15L
- binding result [1]: no binding (tested: 30 µg/mL highest of 5 two-fold dilutions)

- Kd [2]: 40 nM
- kon [3]: 17000 M⁻¹ s⁻¹
- koff [4]: 0.00069 s⁻¹
B3: anti-Aβ oligomer humanized antibody HV0LV0 (antibody, V domains shown)
VH: B1 VH
VL: B1 VL with K50Q, F92Y
notes: Whole humanized antibody expressed from vector pKANTEX93 (WO 97/10354) with human constant regions; Produced in FUT8 knockout CHO/DG44 cells (no core fucose); also called 6E4HV0 + 6E4LV0
- binding result [1]: no binding (tested: 30 µg/mL highest of 5 two-fold dilutions)

- Kd [2]: 71 nM
- kon [3]: 7000 M⁻¹ s⁻¹
- koff [4]: 0.0005 s⁻¹
B4: anti-Aβ oligomer humanized antibody HV0LV4 (antibody, V domains shown)
VH: B1 VH
VL: B1 VL with I2V, P15L
notes: also called 6E4HV0 + LV4
- binding result [1]: no binding (tested: 30 µg/mL highest of 5 two-fold dilutions)
